In this assay the target is SARS-CoV-2 glycoprotein S (SARS-CoV-2) (UniProt P0DTC2). Put plainly: cryo-EM structure; in situ cryo-electron tomography on cryo-FIB milled lamellae of chemically fixed infected cells; subtomogram average of 219 S trimers from six tomograms of intracellular virions; C3 symmetry applied after it was revealed without being imposed.

Our source for the stoichiometry N values is article PMC7676268.

The term stoichiometry N denotes a count of units in the complex or per binding partner.

Substance “SARS-CoV-2 glycoprotein S (from UniProt P0DTC2 14-1273) (natural protein)” showed a stoichiometry N of 3.
